Reference: patent US20260347399A1, “BRAIN PENETRATING PEPTIDES AND METHODS OF USE” (priority 2022, published 2026)
“Also recorded” adds a separate entry of the source.

Tests used:
mouse brain = assay: In vivo phage display with CX4CYX library
Procedure: In vivo phage display with CX4CYX library was performed in three selection rounds. Phage library was injected intravenously to Balb/c mice and allowed to circulate for one hour. After circulation, the animals were anesthetized and perfused intracardially with acid and detergent buffers. Brain and control organs were collected and homogenized in 1% NP40-LB. Bound phages were rescued by amplification in E. coli and their genomic DNA was sequenced by Ion Torrent next generation DNA sequencing system.
A novel phage library CX4CYX was constructed based on the alanine-leucine screen to find new brain homing peptides). This knowledge directed us to construct a novel phage library CX4CYX (X—any amino acid), where Cys1, Cys6 and Tyr7 remained in their intact positions, and the four amino acid variable-domain laid between the cysteines, and one amino acid variability after Tyr7. Three rounds of phage bio-panning was performed to allow enrichment of peptides in the brain. Again acid and detergent buffers were used for perfusion to remove non-specifically bound phages from the brain after systemic administration of phage library (round 1) and recovered brain phage pools (round 2 and 3). HTS reads from round 1 to round 3 indicated decent enrichment of in-frame peptides in the brain (Table 6).

mouse CNS = assay: CVGTNCY peptide-phage biodistribution; type: in vivo
Procedure: (§1) CVGTNCY (SEQ ID NO:2) peptide-phage or control phage were injected iv into mice, after one hour circulation animals were perfused with 20 ml PBS, organs were collected, weighed, and dropped to 1% NP40-LB solution. Organs were homogenized and titer of each tissue was determined. FAM-labeled peptides (2 mM of peptide in PBS) were injected intravenously and 3 hours later the animals were perfused with 20 mL of PBS. The organs were excised, snap-frozen in the vapor of liquid nitrogen, and stored at −80 °C. For confocal microscopy, the tissues were sectioned at 15 μm and stained with antibodies and DAPI.
(§2) To describe the utility of CVGTNCY (SEQ ID NO:2) peptide as a systemic CNS homing peptide, the biodistribution of CVGTNCY (SEQ ID NO:2) peptide-phage as well as peptide-functionalized AgNPs were analyzed in rodents. […] No significant difference between CVGTNCY (SEQ ID NO:2) and G7 titers was determined in the rest of the analyzed organs/tissues).

rat CNS = assay: CVGTNCY peptide-phage biodistribution, rats; type: in vivo; conditions: peptide-phage i.v., 1 h
Procedure: as §1, §2

22 different cell-lines = assay: CVGTNCY peptide-phage binding on cell lines; type: cell-based, human or mouse; conditions: +4 °C, 1 h; over control phage G7
Procedure: 22 different cell-lines derived from human or mouse tumors or normal tissues were used in the experiments (Table 4).
To evaluate the CVGTNCY (SEQ ID NO:2) peptide-phage binding on cell lines, the CVGTNCY (SEQ ID NO:2) peptide-phage and control G7 phage were incubated on attached cells (except NCH421k cells that grow as speroids) in DMEM-0.5% BSA for 1 hour at +4 °C. Thereafter, the cells were washed four times with DMEM-0.5% BSA and phage was released in 1% NP40-LB to determine the titer of the samples.
An in vitro proximity labeling method was planned to use for the identification of the CVGTNCY (SEQ ID NO:2) peptide receptor. To accomplish receptor search, binding of CVGTNCY (SEQ ID NO:2) peptide-phage on 22 different cell-lines isolated from various tumors and normal tissues was tested.

brain tissue homogenate = assay: Peptide-phage binding to brain tissue homogenate ex vivo; set-up: species or system mouse
VEGFko GBM = assay: Peptide-phage homing in glioma-bearing mice; type: in vivo, mouse; conditions: peptide-phage i.v., 1 h
Source text: (§3) Animal experimentation procedures were approved by the Estonian Ministry of Agriculture, Committee of Animal Experimentation, Project #48 and #159. Balb/c mice and Athymic nude mice (HD) were housed in a pathogen-free environment at the Animal Facility of the Institute of Biomedicine and Translational Medicine, University of Tartu (Tartu, Estonia). For induction of orthotopic GBM xenografts in nude mice, 7×10^5 (WT-GBM, VEGFko GBM) cells were implanted intracranially in the right striatum of the brain (ccordinates: 2 mm laterally and 2 mm posteriorly from bregma and at 2.5 mm depth). Intracranial tumors developed for 6-7 days (WT-GBM) and 12-14 days (VEGFko GBM) before performing experiments.
(§4) Homing of CVGTNCY (SEQ ID NO:2) was analyzed in angiogenic WT-GBM and infiltrative VEGFko GBM models. First, CVGTNCY (SEQ ID NO:2) peptide-phage homing was evaluated based on titer after systemic injection into the glioma-bearing mice and perfusion with PBS.

WT-GBM = assay: Peptide-phage homing in glioma-bearing mice; type: in vivo, mouse; conditions: peptide-phage i.v., 1 h
Source text: as §3, §4

[1] = system: GBM and normal brain parenchyma; assay: Synthetic peptide homing in glioma-bearing mice (IHC); type: in vivo, mouse; conditions: synthetic peptide i.v., 1 h
Procedure: as §1
Cryosections (15 μm) on Superfrost Plus slides were fixed in cold methanol, washed in PBS, treated with 3% hydrogen peroxide, and blocked in PBS containing 0.05% Tween-20, 5% BSA, and 5% goat serum (GE Healthcare, UK) for 1 h. The sections were immunostained with rabbit anti-fluorescein (cat #A889, Thermo Fisher Scientific, MA, USA) antibody overnight at +4 °C. […] Sections were imaged with Leica Aperio VERSA microscope slide scanner. Imaged were processed with Aperio Image Scope (v12.4.3.5008).
The synthetic CVGTNCY (SEQ ID NO:2) peptide or scrambled CVGTNCY (SEQ ID NO:2) homing in WT-GBM and VEGFko GBM-bearing mice was analyzed after i.v. injection and perfusion of the animals. Cryosections of glioma-bearing brains were stained with anti-FAM antibody and tyramide amplification kit to enhance the signal of the peptide.
To assess homing of CVG peptide in glioblastoma, CVGTNCY (SEQ ID NO:2) peptide-phage was injected iv into mice bearing either WT-GBM, VEGFko, U87MG or NCH421k GBM, and to mice without a tumor. At one hour time point mice were perfused, brains and control organs collected and titered. […] (FIGS. 17A-17B) Distribution of CVG peptide in GBM and brain parenchyma was also assessed. CVGTNCY (SEQ ID NO:2) peptide or its scrambled version (CVYTCNG; (SEQ ID NO: 68)) was injected iv into glioma bearing mice, after 1 hour circulation mice were perfused and tissues of interest snap-frozen in liquid nitrogen.

[2] = WT-GBM and VEGFko GBM-bearing mice

Substance: CVGTNCY
- R1 reads (mouse brain; round 1): 12 reads
- R3 reads (mouse brain; round 3): 37038 reads
- reads in the brain compared to CAGALCY (mouse brain; round 3, vs CAGALCY): about 40 times
- R3 > R1 (ratio of sequencing reads between round 3 and round 1) (mouse brain; round 3 / round 1): 3087
- homing preference (mouse CNS; mouse, in vivo): homes preferentially to the eyes/brain/CNS
- homing to other organs (mouse CNS; peptide-phage i.v., 1 h, mice): did not show a trend of homing
- level in CNS and eyes compared to control G7 phage (mouse CNS; peptide-phage i.v., 1 h, mice): High level
- regional homing in CNS (mouse CNS; peptide-phage i.v., 1 h, mice): tendency to home more to the hippocampus, frontal cortex and cerebellum
- homing to CNS vs other organs (rat CNS): homes preferentially to the CNS than to other organs
- peptide-phage binding on cell lines (22 different cell-lines): minimal binding
- binding to brain tissue homogenate ex vivo in the presence of whole blood (brain tissue homogenate; with blood sample, p<0.05): significantly increase binding
- binding to brain tissue homogenate ex vivo (brain tissue homogenate; without blood): no binding was detected; also recorded: significantly disrupted
- accumulation in VEGFko GBM compared to normal brain parenchyma (VEGFko GBM): 2 times
- ratio of CVGTNCY over G7, normal brain vs GBM (WT-GBM; WT-GBM and VEGFko GBM): higher in the normal brain parenchyma than in GBMs
- accumulation in WT-GBM compared to normal brain parenchyma (WT-GBM): 6 times
- cell type targeted in normal brain [1]: binding to the cortical neurons in the normal brain
- detection in brain parenchyma [1, 2]: detected in the brain parenchyma
- detection/targeting in GBM [1, 2]: activated microglia in GBM
- detection in brain parenchyma ([1]; WT-GBM and VEGFko GBM-bearing mice, listed as CVG): homed to brain parenchyma and GBM
